To fix the notation:
T1: EsCas13d, nuclease-dead (Eubacterium siraeum, UniProt B0MS50, R295A;H300A;R849A;H854A)
T1 sequence: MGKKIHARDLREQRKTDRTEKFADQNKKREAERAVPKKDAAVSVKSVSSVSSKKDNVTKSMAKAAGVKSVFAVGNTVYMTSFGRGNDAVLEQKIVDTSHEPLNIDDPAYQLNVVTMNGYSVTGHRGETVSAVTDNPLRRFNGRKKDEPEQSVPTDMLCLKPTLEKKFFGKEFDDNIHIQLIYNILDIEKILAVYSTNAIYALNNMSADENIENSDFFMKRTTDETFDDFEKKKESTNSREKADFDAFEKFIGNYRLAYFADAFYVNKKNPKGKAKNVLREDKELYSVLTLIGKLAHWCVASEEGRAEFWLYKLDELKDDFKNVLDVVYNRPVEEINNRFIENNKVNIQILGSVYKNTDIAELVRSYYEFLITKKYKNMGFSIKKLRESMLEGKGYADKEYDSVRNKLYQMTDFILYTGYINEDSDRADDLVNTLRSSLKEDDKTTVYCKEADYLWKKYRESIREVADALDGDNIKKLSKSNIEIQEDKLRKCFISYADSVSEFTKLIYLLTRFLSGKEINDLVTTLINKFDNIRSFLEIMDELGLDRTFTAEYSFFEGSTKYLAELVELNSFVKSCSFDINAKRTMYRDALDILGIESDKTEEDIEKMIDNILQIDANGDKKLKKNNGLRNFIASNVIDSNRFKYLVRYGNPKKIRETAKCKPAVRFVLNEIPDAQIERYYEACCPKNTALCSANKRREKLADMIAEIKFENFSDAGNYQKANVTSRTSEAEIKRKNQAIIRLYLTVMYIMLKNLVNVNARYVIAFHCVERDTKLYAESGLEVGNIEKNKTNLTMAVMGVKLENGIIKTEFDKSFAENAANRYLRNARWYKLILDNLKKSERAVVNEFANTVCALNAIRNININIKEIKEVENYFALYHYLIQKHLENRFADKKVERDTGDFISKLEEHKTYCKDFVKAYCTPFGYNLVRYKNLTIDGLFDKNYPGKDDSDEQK

B1: target 1 insC 3' of 18,insU 3' of 18 (mixed)
RNA 1: CACCCGUGCAAAAAUGCAGGGGUCUAAAACUGAGCGGAUAACCUCUCUAUGG
RNA 2: GGGAAUGGAUCCACAUCUACGAAUUCGUACCAUACUGAGAGGUUAUCCGCUCACCGAGAUCGGAAGAGCACACGU
B2: target 1 insA 3' of 4,insG 3' of 2 (mixed)
RNA 1: CACCCGUGCAAAAAUGCAGGGGUCUAAAACUGAGCGGAUAACCUCUCUAUGG
RNA 2: GGGAAUGGAUCCACAUCUACGAAUUCGUACCAUAGAGAGGUUAUCCGCAUCGACCGAGAUCGGAAGAGCACACGU
B3: target 1 G5A,G17C (mixed)
RNA 1: CACCCGUGCAAAAAUGCAGGGGUCUAAAACUGAGCGGAUAACCUCUCUAUGG
RNA 2: GGGAAUGGAUCCACAUCUACGAAUUCGUACCAUACAGAGGUUAUCCACUCACCGAGAUCGGAAGAGCACACGU
B4: target 1 insU 3' of 22,insA 3' of 10 (mixed)
RNA 1: CACCCGUGCAAAAAUGCAGGGGUCUAAAACUGAGCGGAUAACCUCUCUAUGG
RNA 2: GGGAAUGGAUCCACAUCUACGAAUUCGUACUCAUAGAGAGGUUAAUCCGCUCACCGAGAUCGGAAGAGCACACGU
B5: target 1 C6A,U8A (mixed)
RNA 1: CACCCGUGCAAAAAUGCAGGGGUCUAAAACUGAGCGGAUAACCUCUCUAUGG
RNA 2: GGGAAUGGAUCCACAUCUACGAAUUCGUACCAUAGAGAGGUUAACAGCUCACCGAGAUCGGAAGAGCACACGU
B6: target 1 C4U,G5C (mixed)
RNA 1: CACCCGUGCAAAAAUGCAGGGGUCUAAAACUGAGCGGAUAACCUCUCUAUGG
RNA 2: GGGAAUGGAUCCACAUCUACGAAUUCGUACCAUAGAGAGGUUAUCCCUUCACCGAGAUCGGAAGAGCACACGU
B7: target 1 C4G,G15U (mixed)
RNA 1: CACCCGUGCAAAAAUGCAGGGGUCUAAAACUGAGCGGAUAACCUCUCUAUGG
RNA 2: GGGAAUGGAUCCACAUCUACGAAUUCGUACCAUAGAUAGGUUAUCCGGUCACCGAGAUCGGAAGAGCACACGU
B8: target 1 G5U,G17U (mixed)
RNA 1: CACCCGUGCAAAAAUGCAGGGGUCUAAAACUGAGCGGAUAACCUCUCUAUGG
RNA 2: GGGAAUGGAUCCACAUCUACGAAUUCGUACCAUAUAGAGGUUAUCCUCUCACCGAGAUCGGAAGAGCACACGU
B9: target 1 U19C,C22G (mixed)
RNA 1: CACCCGUGCAAAAAUGCAGGGGUCUAAAACUGAGCGGAUAACCUCUCUAUGG
RNA 2: GGGAAUGGAUCCACAUCUACGAAUUCGUAGCACAGAGAGGUUAUCCGCUCACCGAGAUCGGAAGAGCACACGU
B10: target 1 insC 3' of 18,insA 3' of 15 (mixed)
RNA 1: CACCCGUGCAAAAAUGCAGGGGUCUAAAACUGAGCGGAUAACCUCUCUAUGG
RNA 2: GGGAAUGGAUCCACAUCUACGAAUUCGUACCAUACGAGAAGGUUAUCCGCUCACCGAGAUCGGAAGAGCACACGU
B11: target 1 U8A,U10G (mixed)
RNA 1: CACCCGUGCAAAAAUGCAGGGGUCUAAAACUGAGCGGAUAACCUCUCUAUGG
RNA 2: GGGAAUGGAUCCACAUCUACGAAUUCGUACCAUAGAGAGGUGAACCGCUCACCGAGAUCGGAAGAGCACACGU
B12: target 1 C7G,G12A (mixed)
RNA 1: CACCCGUGCAAAAAUGCAGGGGUCUAAAACUGAGCGGAUAACCUCUCUAUGG
RNA 2: GGGAAUGGAUCCACAUCUACGAAUUCGUACCAUAGAGAGAUUAUGCGCUCACCGAGAUCGGAAGAGCACACGU
B13: target 1 insA 3' of 19,insA 3' of 3 (mixed)
RNA 1: CACCCGUGCAAAAAUGCAGGGGUCUAAAACUGAGCGGAUAACCUCUCUAUGG
RNA 2: GGGAAUGGAUCCACAUCUACGAAUUCGUACCAUAAGAGAGGUUAUCCGCUACACCGAGAUCGGAAGAGCACACGU
B14: target 1 insA 3' of 15,insC 3' of 15 (mixed)
RNA 1: CACCCGUGCAAAAAUGCAGGGGUCUAAAACUGAGCGGAUAACCUCUCUAUGG
RNA 2: GGGAAUGGAUCCACAUCUACGAAUUCGUACCAUAGAGACAGGUUAUCCGCUCACCGAGAUCGGAAGAGCACACGU
B15: target 1 insG 3' of 16,insU 3' of 2 (mixed)
RNA 1: CACCCGUGCAAAAAUGCAGGGGUCUAAAACUGAGCGGAUAACCUCUCUAUGG
RNA 2: GGGAAUGGAUCCACAUCUACGAAUUCGUACCAUAGAGGAGGUUAUCCGCUCUACCGAGAUCGGAAGAGCACACGU
B16: target 1 U3C,G12U (mixed)
RNA 1: CACCCGUGCAAAAAUGCAGGGGUCUAAAACUGAGCGGAUAACCUCUCUAUGG
RNA 2: GGGAAUGGAUCCACAUCUACGAAUUCGUACCAUAGAGAGUUUAUCCGCCCACCGAGAUCGGAAGAGCACACGU
B17: target 1 U19G,C21U (mixed)
RNA 1: CACCCGUGCAAAAAUGCAGGGGUCUAAAACUGAGCGGAUAACCUCUCUAUGG
RNA 2: GGGAAUGGAUCCACAUCUACGAAUUCGUACUAGAGAGAGGUUAUCCGCUCACCGAGAUCGGAAGAGCACACGU
B18: target 1 insA 3' of 15,insU 3' of 6 (mixed)
RNA 1: CACCCGUGCAAAAAUGCAGGGGUCUAAAACUGAGCGGAUAACCUCUCUAUGG
RNA 2: GGGAAUGGAUCCACAUCUACGAAUUCGUACCAUAGAGAAGGUUAUCCUGCUCACCGAGAUCGGAAGAGCACACGU
B19: target 1 U8C,A14C (mixed)
RNA 1: CACCCGUGCAAAAAUGCAGGGGUCUAAAACUGAGCGGAUAACCUCUCUAUGG
RNA 2: GGGAAUGGAUCCACAUCUACGAAUUCGUACCAUAGAGCGGUUACCCGCUCACCGAGAUCGGAAGAGCACACGU
B20: target 1 U3G,U10G (mixed)
RNA 1: CACCCGUGCAAAAAUGCAGGGGUCUAAAACUGAGCGGAUAACCUCUCUAUGG
RNA 2: GGGAAUGGAUCCACAUCUACGAAUUCGUACCAUAGAGAGGUGAUCCGCGCACCGAGAUCGGAAGAGCACACGU
B21: target 1 insC 3' of 19,insG 3' of 3 (mixed)
RNA 1: CACCCGUGCAAAAAUGCAGGGGUCUAAAACUGAGCGGAUAACCUCUCUAUGG
RNA 2: GGGAAUGGAUCCACAUCUACGAAUUCGUACCAUCAGAGAGGUUAUCCGCUGCACCGAGAUCGGAAGAGCACACGU
B22: target 1 insA 3' of 22,insA 3' of 5 (mixed)
RNA 1: CACCCGUGCAAAAAUGCAGGGGUCUAAAACUGAGCGGAUAACCUCUCUAUGG
RNA 2: GGGAAUGGAUCCACAUCUACGAAUUCGUACACAUAGAGAGGUUAUCCGACUCACCGAGAUCGGAAGAGCACACGU
B23: target 1 insA 3' of 15,insC 3' of 10 (mixed)
RNA 1: CACCCGUGCAAAAAUGCAGGGGUCUAAAACUGAGCGGAUAACCUCUCUAUGG
RNA 2: GGGAAUGGAUCCACAUCUACGAAUUCGUACCAUAGAGAAGGUUCAUCCGCUCACCGAGAUCGGAAGAGCACACGU

A word on the Kd: it is a measure of binding affinity in units of concentration. A low value points to a tighter complex.

In the series the target is T1, EsCas13d, nuclease-dead. Nature of the series: crRNA (strand 1, pre-loaded); Mg2+; 40 mM Tris-HCl pH 7.5, 150 mM NaCl, 6 mM MgCl2, 1 mM DTT, 0.1% Tween-20, 0.2 mg/ml BSA; 25 C; 10 min per concentration, then washed. The settings on record: tags: His6-TwinStrep-SUMO cleaved; N-terminal SNAP kept (SNAP-Surface 488); label: 3' end held by stalled T7 RNA polymerase.
With B1, the Kd was 57 ± 6 nM.
As for B2, the figure is 7.7 ± 0.6 nM.
To B3 belongs 80 ± 21 nM; to B4, 43 ± 5 nM; to B5, 14.4 ± 0.4 nM.
As to B6, binding was characterised by a dissociation constant (Kd) of 39 ± 4 nM.
Molecule B7 had a Kd of 22 ± 8 nM.
For the molecule B8, binding was characterised by a dissociation constant (Kd) of 62 ± 8 nM.
As for B9, the figure is about 80 nM.
B10 had a Kd of 25.1 ± 1.2 nM.
As for B11, the figure is 18.2 ± 0.8 nM; as for B12, 15.4 ± 1.3 nM.
To B13 belongs 16.7 ± 1 nM; to B14, 20.4 ± 1.6 nM; to B15, 15.1 ± 1.3 nM.
In turn, B16 yielded a Kd of 19.4 ± 1.4 nM.
To B17 belongs 11.1 ± 1.3 nM.
To B18 belongs 11.3 ± 0.5 nM; to B19, 81 ± 14 nM; to B20, 35.2 ± 2.9 nM.
B21 showed a Kd of 26 ± 1.4 nM.
To B22 belongs 7.2 ± 0.6 nM; to B23, about 80 nM.

(Values after publication PMC10786891, “Massively parallel profiling of RNA-targeting CRISPR-Cas13d”.)
